The supplement of paper PMC10567573

B1: RIPK4 (parent)
chain: RERMELLEEAKKMEMAKFRYILPV
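Also: lentivirally expressed fusions sorted by FACS into six bins by GFP to DsRed ratio, PSI derived from sequencing read proportions per bin multiplied by bin number.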

Variants of: B1
Test: protein stability index of a GFP-peptide fusion (GPS, HEK-293T) (PSI 1-6); higher = more stable
Conditions: c terminus: a fixed tail appended
RERMTLLEEAKKMEMAKFRYILPV gave a protein stability index of 2.34. In the case of RERMRLLEEAKKMEMAKFRYILPV, the protein stability index is reported as 2.97. With RERMWLLEEAKKMEMAKFRYILPV the protein stability index was 2.23. Variant RERMLLLEEAKKMEMAKFRYILPV has a protein stability index of 2.75. RERMYLLEEAKKMEMAKFRYILPV gave a protein stability index of 2.29. With RERMVLLEEAKKMEMAKFRYILPV the protein stability index was 2.29. RERMMLLEEAKKMEMAKFRYILPV gave a protein stability index of 3.12. RERMEHLEEAKKMEMAKFRYILPV showed a protein stability index of 3.87. With RERMEYLEEAKKMEMAKFRYILPV the protein stability index was 3.83. Work on RERMEQLEEAKKMEMAKFRYILPV yielded a protein stability index of 3.08. In the case of RERMERLEEAKKMEMAKFRYILPV, the protein stability index is reported as 3.56. RERMEWLEEAKKMEMAKFRYILPV showed a protein stability index of 3. In the case of RERMEGLEEAKKMEMAKFRYILPV, the protein stability index is reported as 3.54. For RERMENLEEAKKMEMAKFRYILPV, the protein stability index was 3.66. With RERMEDLEEAKKMEMAKFRYILPV the protein stability index was 4.56. With RERMESLEEAKKMEMAKFRYILPV the protein stability index was 3.19. RERMEVLEEAKKMEMAKFRYILPV showed a protein stability index of 2.9. Variant RERMEKLEEAKKMEMAKFRYILPV has a protein stability index of 3.88. RERMECLEEAKKMEMAKFRYILPV showed a protein stability index of 3.05. With RERMEALEEAKKMEMAKFRYILPV the protein stability index was 3.19. For RERMETLEEAKKMEMAKFRYILPV, the protein stability index was 3.49. RERMEILEEAKKMEMAKFRYILPV showed a protein stability index of 3.98. Work on RERMEMLEEAKKMEMAKFRYILPV yielded a protein stability index of 3.77. With RERMELLEELKKMEMAKFRYILPV the protein stability index was 3.33. In the case of RERMELLEEFKKMEMAKFRYILPV, the protein stability index is reported as 3.48. For RERMELLEEWKKMEMAKFRYILPV, the protein stability index was 3.58. With RERMELLEEYKKMEMAKFRYILPV the protein stability index was 3.93. For RERMELLEECKKMEMAKFRYILPV, the protein stability index was 4.69. For RERMELLEENKKMEMAKFRYILPV, the protein stability index was 3.85. In the case of RERMELLEEQKKMEMAKFRYILPV, the protein stability index is reported as 3.79. With RERMELLEETKKMEMAKFRYILPV the protein stability index was 2.81. RERMELLEEEKKMEMAKFRYILPV showed a protein stability index of 3.54. RERMELLEEKKKMEMAKFRYILPV gave a protein stability index of 4.38. Variant RERMELLEEIKKMEMAKFRYILPV has a protein stability index of 2.82. For RERMELLEEDKKMEMAKFRYILPV, the protein stability index was 3.99. Variant RERMELLEESKKMEMAKFRYILPV has a protein stability index of 3.69. In the case of RERMELLEEPKKMEMAKFRYILPV, the protein stability index is reported as 3.28. In the case of RERMELLEEHKKMEMAKFRYILPV, the protein stability index is reported as 2.94. In the case of RERMELLEERKKMEMAKFRYILPV, the protein stability index is reported as 3.66. RERMELLEEVKKMEMAKFRYILPV showed a protein stability index of 4.15. In the case of RERMELLEEMKKMEMAKFRYILPV, the protein stability index is reported as 3.32. With RERMELLIEAKKMEMAKFRYILPV the protein stability index was 2.11. In the case of RERMELLPEAKKMEMAKFRYILPV, the protein stability index is reported as 3.14. In the case of RERMELLNEAKKMEMAKFRYILPV, the protein stability index is reported as 2.04. With RERMELLSEAKKMEMAKFRYILPV the protein stability index was 3.06. Variant RERMELLYEAKKMEMAKFRYILPV has a protein stability index of 2.62. In the case of RERMELLFEAKKMEMAKFRYILPV, the protein stability index is reported as 2.68. RERMELLDEAKKMEMAKFRYILPV showed a protein stability index of 2.86. RERMELLREAKKMEMAKFRYILPV gave a protein stability index of 3.5. RERMELLLEAKKMEMAKFRYILPV gave a protein stability index of 2.11. Variant RERMELLHEAKKMEMAKFRYILPV has a protein stability index of 2.67. Work on RERMELLGEAKKMEMAKFRYILPV yielded a protein stability index of 2.27. In the case of RERMELLMEAKKMEMAKFRYILPV, the protein stability index is reported as 2.69. For RERMELLCEAKKMEMAKFRYILPV, the protein stability index was 3.01. Variant RERMELLWEAKKMEMAKFRYILPV has a protein stability index of 3.05. Variant RERMELLQEAKKMEMAKFRYILPV has a protein stability index of 2.03. Work on RERMELLVEAKKMEMAKFRYILPV yielded a protein stability index of 1.69. RERMELLKEAKKMEMAKFRYILPV gave a protein stability index of 3.42. RERMELLTEAKKMEMAKFRYILPV showed a protein stability index of 3.16. Variant RERMELLEGAKKMEMAKFRYILPV has a protein stability index of 3.79. In the case of RERMELLECAKKMEMAKFRYILPV, the protein stability index is reported as 2.12. RERMELLEQAKKMEMAKFRYILPV gave a protein stability index of 3.31. Work on RERMELLEDAKKMEMAKFRYILPV yielded a protein stability index of 3.91. Variant RERMELLEAAKKMEMAKFRYILPV has a protein stability index of 2.85. RERMELLEYAKKMEMAKFRYILPV gave a protein stability index of 2.49. With RERMELLELAKKMEMAKFRYILPV the protein stability index was 1.94. Work on RERMELLEHAKKMEMAKFRYILPV yielded a protein stability index of 2.8. RERMELLEPAKKMEMAKFRYILPV gave a protein stability index of 3.42. Variant RERMELLESAKKMEMAKFRYILPV has a protein stability index of 3.08. Variant RERMELLEMAKKMEMAKFRYILPV has a protein stability index of 2.78. In the case of RERMELLETAKKMEMAKFRYILPV, the protein stability index is reported as 2.93. RERMELLEKAKKMEMAKFRYILPV gave a protein stability index of 3.65. RERMELLEFAKKMEMAKFRYILPV gave a protein stability index of 2.37. Work on RERMELLENAKKMEMAKFRYILPV yielded a protein stability index of 3.44. For RERMELLERAKKMEMAKFRYILPV, the protein stability index was 2.4. RERMELLEIAKKMEMAKFRYILPV gave a protein stability index of 2.57. For RERMELLEWAKKMEMAKFRYILPV, the protein stability index was 2.16. Work on RERMELLEVAKKMEMAKFRYILPV yielded a protein stability index of 2.43. In the case of RERMELAEEAKKMEMAKFRYILPV, the protein stability index is reported as 3.35. With RERMELKEEAKKMEMAKFRYILPV the protein stability index was 3.99. In the case of RERMELWEEAKKMEMAKFRYILPV, the protein stability index is reported as 2.43. RERMELQEEAKKMEMAKFRYILPV showed a protein stability index of 3.87. For RERMELTEEAKKMEMAKFRYILPV, the protein stability index was 4.19. RERMELVEEAKKMEMAKFRYILPV showed a protein stability index of 2.78. For RERMELSEEAKKMEMAKFRYILPV, the protein stability index was 3.66. RERMELDEEAKKMEMAKFRYILPV showed a protein stability index of 3.43. In the case of RERMELEEEAKKMEMAKFRYILPV, the protein stability index is reported as 3.74. RERMELCEEAKKMEMAKFRYILPV gave a protein stability index of 3.94. RERMELMEEAKKMEMAKFRYILPV showed a protein stability index of 3.48. In the case of RERMELPEEAKKMEMAKFRYILPV, the protein stability index is reported as 4.01. Variant RERMELYEEAKKMEMAKFRYILPV has a protein stability index of 2.52. Work on RERMELIEEAKKMEMAKFRYILPV yielded a protein stability index of 3.42. For RERMELFEEAKKMEMAKFRYILPV, the protein stability index was 3.4. Variant RERMELNEEAKKMEMAKFRYILPV has a protein stability index of 3.54.
